Common to all, as to conditions: both partners purified
The target of experiment [1] is T1, TcdA-A2 fragment (C-terminal CROPs domain fragment of TcdA, aa 2,556–2,710 of TcdA10463) (Clostridioides difficile; paper: …).
T1 construct: source: recombinant (Greco et al., 2006)
The experiment in a line: SPR. For orientation: In SPR one partner is held on a chip, and binding of the other changes the refractive index at the surface.

Experiment [2] concerns the target T1, TcdA-A2 fragment (C-terminal CROPs …). The experiment in a line: SEC-MALS.
The target of experiment [3] is T2, Clostridioides difficile toxin A (TcdA), full-length (Clostridioides difficile, strain of …, UniProt P16154).
T2 construct: also called full-length TcdA
The experiment in a line: ELISA. (In general: An ELISA detects its analyte on a solid surface through an enzyme-linked reagent.)

B1: VHH A26 (A26.8) (VHH)
VHH: QVKLEESGGGLVQAGGSLRLSCAASERTFSRYPVAWFRQAPGAEREFVAVISSTGTSTYYADSVKGRFTISRDNAKVTVYLQMNNLKREDTAVYFCAVNSQRTRLQDPNEYDYWGQGTQVTVSS
One may read the koff as the rate constant with which the complex falls apart. High values mean a short-lived complex, low ones a long-lived complex. A word on the stoichiometry N: it is a count of units in the complex or per binding partner. The EC50 is the concentration at which the effect is half-maximal. B1: in experiment [1], the “T1/2 (SPR-calculated half-life, 0.693/kd)” value is 0.6 min and the koff turned out to be 0.025 s⁻¹. Besides, in experiment [2], the “stoichiometry N” value was 1 Ab per Ag (1:1). This molecule returned an EC50 in experiment [3] of 14.6 nM.

B2: VHH A20 (A20.1) (VHH)
VHH: QVQLVESGGGLAQAGGSLRLSCAASGRTFSMDPMAWFRQPPGKEREFVAAGSSTGRTTYYADSVKGRFTISRDNAKNTVYLQMNSLKPEDTAVYYCAAAPYGANWYRDEYAYWGQGTQVTVSS
For the molecule B2, in experiment [1], the “T1/2 (SPR-calculated half-life, 0.693/kd)” value is 1.8 min and the koff is 0.0075 s⁻¹. In addition, the “stoichiometry N” value in experiment [2] is 1 Ab per Ag (1:1). In addition, in experiment [3], the midpoint of the response, the EC50, lay at 0.194 ± 0.013 nM.
